# Reference: patent publication EP4541814A1 (Cytiva BioProcess R&D AB, dated 2025)
# B1: Candidate 4A-3: vh118 fusion protein (SEQ ID NO:162) (VHH)
# VHH: QVQLQQSGGGSVQAGGSLRLSCTISGRTLSDYTMGWFRQRPGKEREFVAAISWSGAYTKYADSVKGRFTISRDNAKNTVYLQMNSLKPEDTAVYYCAAGPTGLLSKKATPADYDYWGQGTQVTVSS
# Biological target: AAV9 viral particles (adeno-associated virus 9)
# Test: SPR (Biacore 8K+), fusion protein amine-coupled to CM5, AAV9 2E12 vp/ml, report point late binding
binder,measurement,value
B1,Binding capacity AAV9 (2E12 vp/ml) (RU),12400 RU
